In publication PMC3695027, “Structural Insights into the Effector – Immunity System Tae4/Tai4 from Salmonella typhimurium” (PLoS ONE, 2013):
Where two headings read alike, the source gives them in different places.

Columns and labels:
[1] = target: Tae4-ATTO 488 (fluorescently labelled Tae4 from Salmonella typhimurium) (Salmonella typhimurium); experiment: stopped-flow fluorescence kinetics; association by direct mixing: 0.1 µM Tae4-ATTO 488 with 0.3-1.5 µM Tai4; 293 K; 50 mM MES pH 6.5, 200 mM NaCl; kobs against Tai4 concentration, kon from the slope
[2] = target: Tae4-ATTO 488 (fluorescently labelled Tae4 from Salmonella typhimurium) (Salmonella typhimurium); experiment: stopped-flow fluorescence kinetics; dissociation: preassembled Tae4-ATTO 488/Tai4 complex (0.1 µM wild type or 0.2 µM mutant) chased with 1 or 2 µM unlabelled Tae4; apparent dissociation rate constant; limit for the wild type from simulated traces; KD calculated as koff/kon with the kon of the direct mixing
[3] = target: Tae4-ATTO 488 (fluorescently labelled Tae4 from Salmonella typhimurium) (Salmonella typhimurium); experiment: as above; remark: listed apart in the source
[4] = target: the molecule itself; experiment: cross-linking; glutaraldehyde, 0.25 µg/µl protein in 20 mM HEPES pH 7.5, 37°C, aliquots 0 to 60 min, Coomassie-stained SDS-PAGE
[5] = target: T1, Tae4 effector protein from Salmonella typhimurium (full-length, hexahistidine-tagged) (Salmonella typhimurium, UniProt Q93IS4 1-161); experiment: stopped-flow fluorescence kinetics; association by intrinsic tryptophan fluorescence (excitation 280 nm): 1.8 µM unlabelled Tae4 with 2.3-9.9 µM wild-type Tai4; 50 mM MES pH 6.5, 200 mM NaCl; data not shown; details: both partners purified
T1 construct: Tae4, Salmonella typhimurium, NP_459275.1, full-length orf; Asn2 to the C-terminal Pro161 modelled in the crystal structure; The single-expression construct was cut out of the bicistronic construct (NcoI/MfeI), so the Tae4 chain is the same in both; No tag removal is described; The crystal for PDB 4J30 held the selenomethionine-substituted complex; also called type-6-secretion amidase effector 4; …
T1 sequence: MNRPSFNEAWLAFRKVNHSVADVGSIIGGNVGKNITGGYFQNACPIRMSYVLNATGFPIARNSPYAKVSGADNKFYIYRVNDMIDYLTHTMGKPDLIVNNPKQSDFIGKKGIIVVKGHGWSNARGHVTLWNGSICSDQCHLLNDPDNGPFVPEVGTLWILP

[6] = target: T2, Tae4 effector protein from Salmonella typhimurium (full-length, hexahistidine-tagged) (Salmonella typhimurium, UniProt Q93IS4 1-161); experiment: ITC
T2 chain: T1 sequence

[7] = target: T1, Tae4 effector protein from Salmonella …; experiment: ITC; 29.5 µM wild-type Tai4 titrated into 2.17 µM Tae4 in the cell; 293 K; 50 mM MES pH 6.5, 200 mM NaCl; single-site binding model; details: both partners purified
[8] = target: T1, Tae4 effector protein from Salmonella …; experiment: SEC-MALS; Superdex200 10/300 GL with multiangle light scattering detector; 50 mM Tris-HCl pH 8.0, 200 mM NaCl; 100 µM protein, 40 µl applied, 0.5 ml/min; details: both partners purified

For “Tai4 immunity protein from Salmonella typhimurium, wild type, periplasmic (C-terminal hexahistidine tag) (from UniProt Q8ZRL5 27-127) (natural protein)”, the kon [1] was 2.48e+06 M⁻¹ s⁻¹, the koff [2] was 7e-05 to 0.0007 s⁻¹ and the Kd [3] was < 0.28 nM. The koff [3] was < 0.0007 s⁻¹.

“Tai4(E71A_S98A) variant of the immunity protein from Salmonella typhimurium (C-terminal hexahistidine tag) (natural protein)” gave a kon [1] of 2.81e+06 M⁻¹ s⁻¹, a Kd [3] of 255 nM and a koff [3] of 0.716 s⁻¹.

B1: Tai4 immunity protein from Salmonella typhimurium, wild type, periplasmic (C-terminal hexahistidine tag) (natural protein)
chain: QEALTTQYSQSELLKNWALSHCLALVYKDDVVKNDARATASAYLEYGKQSVEIYHEIDEIAKKYSGLKYNGSISSDFNTMKCIDFIHDRELNELIKRRVEK
notes: Tai4, Salmonella typhimurium, NP_459276.1; Dimer in solution (cross-linking, static light scattering); the calculated dimer mass of 25.95 kDa fits the cut, tagged protein; also called Tai4wt; wild-type Tai4
B1 was tested, and the “stoichiometry N” value [4] was 2, the kon [5] was 2.57e+06 ± 233000 M⁻¹ s⁻¹ and the Kd [6] was 1.28 nM. The Kd [7] was < 1 nM.

B2: Tai4 immunity protein from Salmonella typhimurium, untagged, co-expressed with Tae4 (as in the Tae4/Tai4 complex) (natural protein)
chain: B1 chain
notes: Tai4, Salmonella typhimurium, NP_459276.1; Gln27 to Lys127 modelled in the crystal structure; Homodimer at the centre of the Tae4_2/Tai4_2 heterotetramer; The crystal for PDB 4J30 held the selenomethionine-substituted complex
In the case of B2, the “stoichiometry N” value [8] is reported as 1 Tai4 per Tae4 (2:2).
